# Changes are numbered by the printed parent chain. Names may count otherwise. “And” between values parts separate entries of the source, which are not always exact repeats. Equal values may be shown once.
# B1: PNGaseF-deglycosylated CUB7,8 (domain or fragment, rat, UniProt O70244 1165-1389, looked up)
# chain: CGGNLTTPTGVLTSPNYPMPYYHSSECYWRLEASHGSPFELEFQDFHLEHHPSCSLDYLAVFDGPTTNSRLIDKLCGDTTPAPIRSNKDVVLLKLRTDAGQQGRGFEINFRQRCDNVVIVNKTSGILESINYPNPYDKNQRCNWTIQATTGNTVNYTFLGFDVESYMNCSTDYVELYDGPQWMGRYCGNNMPPPGATTGSQLHVLFHTDGINSGEKGFKMQWFTH
# modifications: N-glycans removed with PNGaseF
# notes: cubilin, rat, CUB7 (1165–1277) and CUB8 (1278–1389) of full length cubilin UniProtKB O70244; also called CUB7,8 after PNGaseF treatment (+); His tagged CUB7,8 domain; not shown: His6, C-terminal, kept
# B2: CUB7,8-N1285P, not treated with PNGaseF (domain or fragment, rat, UniProt O70244 1165-1389, looked up)
# chain: B1 chain with N121P
# modifications: N-glycans as made in 293F cells (N1168, N1303, N1319 by MS, Table 2)
# notes: also called CUB7,8 N1285P mutant; source: 293F cells, purified as the other cubilin proteins (Ni-NTA Superflow, gel filtration)
# B3: rat serum albumin (RSA) (natural protein, UniProt P02770 25-608, looked up)
# chain: EAHKSEIAHRFKDLGEQHFKGLVLIAFSQYLQKCPYEEHIKLVQEVTDFAKTCVADENAENCDKSIHTLFGDKLCAIPKLRDNYGELADCCAKQEPERNECFLQHKDDNPNLPPFQRPEAEAMCTSFQENPTSFLGHYLHEVARRHPYFYAPELLYYAEKYNEVLTQCCTESDKAACLTPKLDAVKEKALVAAVRQRMKCSSMQRFGERAFKAWAVARMSQRFPNAEFAEITKLATDVTKINKECCHGDLLECADDRAELAKYMCENQATISSKLQACCDKPVLQKSQCLAEIEHDNIPADLPSIAADFVEDKEVCKNYAEAKDVFLGTFLYEYSRRHPDYSVSLLLRLAKKYEATLEKCCAEGDPPACYGTVLAEFQPLVEEPKNLVKTNCELYEKLGEYGFQNAVLVRYTQKAPQVSTPTLVEAARNLGRVGTKCCTLPEAQRLPCVEDYLSAILNRLCVLHEKTPVSEKVTKCCSGSLVERRPCFSALTVDETYVPKEFKAETFTFHSDICTLPDKEKQIKKQTALAELVKHKPKATEDQLKTVMGDFAQFVDKCCKAADKDNCFATEGPNLVARSKEALA
# modifications: in MST: Texas Red-X succinimidyl ester or Oregon Green 488-X succinimidyl ester conjugate, dye:protein molar ratio 1:1
# notes: serum albumin, rat, UniprotKB P02770; Labelled with dye in MST; also called rat albumin; source: bought: Sigma
# B4: CUB6–8 (cubilin 6–8 domain), glycosylated, not treated with PNGaseF (domain or fragment)
# chain: CLYDYTDNFGMLSSPNFPNNYPSNWECIYRITVGLNQQIALHFTDFTLEDYFGSQCVDFVEIRDGGYETSPLVGIYCGSVLPPTIISHSNKLWLKFKSDAALTAKGFSAYWDGSSTGCGGNLTTPTGVLTSPNYPMPYYHSSECYWRLEASHGSPFELEFQDFHLEHHPSCSLDYLAVFDGPTTNSRLIDKLCGDTTPAPIRSNKDVVLLKLRTDAGQQGRGFEINFRQRCDNVVIVNKTSGILESINYPNPYDKNQRCNWTIQATTGNTVNYTFLGFDVESYMNCSTDYVELYDGPQWMGRYCGNNMPPPGATTGSQLHVLFHTDGINSGEKGFKMQWFTHG
# modifications: N-glycans as made in 293F cells
# What was measured:
# [1] = target: Albumin (Rattus norvegicus) (UniProt P02770); settings: cited from earlier work
# rat serum albumin (RSA) [2] = target: B3; assay: MST; Monolith NT.115, standard capillaries, 25 °C, 67 mM NaPO4, 150 mM NaCl, 0.05% Tween 20, pH 7.4 + 1 mM CaCl2; albumin labelled with a fluorescent dye (1:1), cubilin domain unlabelled
# [3] = target: RSA 1 mM methylglyoxal (RSA1MGO) (rat) (UniProt P02770); assay: as above
# [4] = target: RSA 5 mM methylglyoxal (RSA5MGO) (rat) (UniProt P02770); assay: as above
# [5] = target: RSA 200 mM glucose (RSA200G) (rat) (UniProt P02770); assay: as above
# [6] = target: RSA 500 mM glucose (RSA500G) (rat) (UniProt P02770); assay: as above
# [7] = target: RSA 20 mM glucose (RSA20G) (rat) (UniProt P02770); assay: as above
# human albumin = target: T1, human albumin (human, UniProt P02768 25-609, fluorescent dye conjugate for MST (Texas Red-X or Oregon Green 488-X succinimidyl ester)); assay: as above; settings: both partners purified
# T1 construct: albumin, human
# rabbit albumin = target: T2, rabbit albumin (rabbit, UniProt P49065 25-608, fluorescent dye conjugate for MST (Texas Red-X or Oregon Green 488-X succinimidyl ester)); assay: as above; settings: both partners purified
# T2 construct: albumin, rabbit
# bovine albumin = target: T3, bovine albumin (bovine, UniProt P02769 25-607, fluorescent dye conjugate for MST (Texas Red-X or Oregon Green 488-X succinimidyl ester)); assay: as above; settings: both partners purified
# T3 construct: albumin, bovine
# rat serum albumin (RSA) [8] = target: B3; assay: MST; as a1 but at pH 5.0 (buffer not told); albumin labelled
# rat serum albumin (RSA) [9] = target: B3; assay: MST; as a1 but at pH 6.0; albumin labelled
# [10] = target: the molecule itself; assay: SEC-MALS; data not shown; CUB7,8N1285P
# [11] = target: the molecule itself; assay: SEC-MALS; Agilent Infinity II HPLC with Wyatt DAWN HELEOS II and Optilab T-rEX, 25 °C, running buffer with 2% v/v glycerol; cubilin domains not treated with any glycosidase
# T2 sequence (P49065 25-608): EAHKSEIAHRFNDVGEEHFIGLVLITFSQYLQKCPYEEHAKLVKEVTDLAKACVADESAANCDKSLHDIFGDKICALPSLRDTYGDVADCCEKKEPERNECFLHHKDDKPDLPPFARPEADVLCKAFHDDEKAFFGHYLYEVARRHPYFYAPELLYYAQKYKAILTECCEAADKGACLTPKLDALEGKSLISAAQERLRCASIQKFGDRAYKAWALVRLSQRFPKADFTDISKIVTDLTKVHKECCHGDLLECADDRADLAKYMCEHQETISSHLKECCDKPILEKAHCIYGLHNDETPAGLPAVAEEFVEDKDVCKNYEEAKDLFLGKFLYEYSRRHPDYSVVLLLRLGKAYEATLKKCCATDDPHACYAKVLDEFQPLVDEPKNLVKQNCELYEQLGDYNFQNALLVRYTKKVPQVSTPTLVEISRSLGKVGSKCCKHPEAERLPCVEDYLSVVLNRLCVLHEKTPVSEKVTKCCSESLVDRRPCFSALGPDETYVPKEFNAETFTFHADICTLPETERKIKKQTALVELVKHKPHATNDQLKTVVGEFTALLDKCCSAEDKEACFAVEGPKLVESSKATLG
# T3 sequence (P02769 25-607): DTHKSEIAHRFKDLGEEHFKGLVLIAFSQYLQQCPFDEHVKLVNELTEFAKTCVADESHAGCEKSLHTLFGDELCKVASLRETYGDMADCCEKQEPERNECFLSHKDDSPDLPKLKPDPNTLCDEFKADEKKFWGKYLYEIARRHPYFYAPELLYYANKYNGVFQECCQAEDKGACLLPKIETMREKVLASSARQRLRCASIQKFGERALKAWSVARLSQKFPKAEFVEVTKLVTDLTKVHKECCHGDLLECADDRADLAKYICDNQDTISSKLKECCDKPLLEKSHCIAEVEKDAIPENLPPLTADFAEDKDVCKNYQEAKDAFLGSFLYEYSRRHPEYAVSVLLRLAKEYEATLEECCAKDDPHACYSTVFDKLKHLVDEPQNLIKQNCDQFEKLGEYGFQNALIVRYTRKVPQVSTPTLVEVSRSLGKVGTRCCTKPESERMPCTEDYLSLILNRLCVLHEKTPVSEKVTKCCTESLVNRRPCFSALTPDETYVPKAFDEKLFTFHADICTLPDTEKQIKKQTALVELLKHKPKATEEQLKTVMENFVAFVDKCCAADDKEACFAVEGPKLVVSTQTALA
# T1 sequence (P02768 25-609): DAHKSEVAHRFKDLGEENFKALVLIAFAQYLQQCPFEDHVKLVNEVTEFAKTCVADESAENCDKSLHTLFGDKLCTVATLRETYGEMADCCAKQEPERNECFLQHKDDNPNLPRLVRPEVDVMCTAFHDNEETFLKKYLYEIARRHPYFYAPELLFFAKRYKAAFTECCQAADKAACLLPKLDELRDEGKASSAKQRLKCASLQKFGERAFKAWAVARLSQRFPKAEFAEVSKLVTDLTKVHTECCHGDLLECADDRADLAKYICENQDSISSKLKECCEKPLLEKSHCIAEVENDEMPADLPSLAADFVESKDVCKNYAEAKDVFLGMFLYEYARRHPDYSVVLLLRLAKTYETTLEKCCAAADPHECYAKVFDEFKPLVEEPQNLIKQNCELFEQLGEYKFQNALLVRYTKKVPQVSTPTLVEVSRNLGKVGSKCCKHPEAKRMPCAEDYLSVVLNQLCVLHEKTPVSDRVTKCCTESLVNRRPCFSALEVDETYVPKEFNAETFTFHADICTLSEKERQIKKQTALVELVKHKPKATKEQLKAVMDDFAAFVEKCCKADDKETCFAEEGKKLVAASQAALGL
molecule,measurement,setting,value
Cubilin (from UniProt O70244),Kd,[1],0.63 µM
PNGaseF-deglycosylated CUB6–8 (domain or fragment),Kd,rat serum albumin (RSA) [2],500 to 1000 µM
same,Kd,rat serum albumin (RSA) [2]; record 2,0.5 to 1 µM and 1 µM
same,Kd,[3],28 µM
same,Kd,[4],> 100 µM
same,Kd,[5],9.4 µM
same,Kd,[6],> 100 µM
same,Kd,[7],2000 µM
"CUB7,8 (cubilin 7,8 domain), glycosylated, not treated with PNGaseF (from UniProt O70244 1165-1389) (domain or fragment)",Kd,rat serum albumin (RSA) [2],> 100 µM
B1,Kd,human albumin,0.95 to 1.5 µM
same,Kd,rabbit albumin,0.9 to 1.4 µM
same,Kd,rat serum albumin (RSA) [2],0.5 to 1.2 µM
same,Kd,rat serum albumin (RSA) [2]; record 2,500 to 1000 µM
same,Kd,bovine albumin,> 100 µM
same,Kd,rat serum albumin (RSA) [8],1400 µM
same,Kd,[3],35 µM
same,Kd,[4],> 100 µM
same,Kd,[5],25.6 µM
same,Kd,[6],> 100 µM
same,Kd,[7],2500 µM
same,Kd,rat serum albumin (RSA) [9],1700 µM
B2,stoichiometry N,[10],2
B3,stoichiometry N,[11],2
B4,Kd,rat serum albumin (RSA) [2]; both partners purified,> 100 µM

# From PMC9485058, “Glycosylation of a key cubilin Asn residue results in reduced binding to albumin” (The Journal of Biological Chemistry, 2022)
